Data as given in the RNAGym collection of RNA variant scans (doi:10.7554/elife.80360).

B1: HDV Ribozyme (parent)
chain: GGCCGGCAUGGUCCCAGCCUCCUCGCUGGCGCCGGCUGGGCAACAUUCCGAGGGGACCGUCCCCUCGGUAAUGGCGAAUGGGACCCA

Variants of: B1
Assay: self-cleavage, relative activity (ratio to wild type); higher = more cleavage; co-transcriptional

Row | Variant | self-cleavage
1 | C3G C14U | 0.817
2 | C3G C14G | 0.268
3 | C3G G39A | 0.0594
4 | C3G G39C | 0.157
5 | C3A G76C | 0.604
6 | C3A G76U | 0.773
7 | C3U G5A | 0.123
8 | C4A C49U | 0.282
9 | C4A C49A | 0.424
10 | C3G C22A | 0.119
11 | C3G C22G | 0
12 | C3G C22U | 0.179
13 | C4A A83C | 0.232
14 | C4A A83U | 0.0959
15 | C4A A83G | 0.234
16 | C3G G80U | 0.0801
17 | C3A U23C | 0.46
18 | C3U A77C | 0.0639
19 | C3U U37G | 0.0639
20 | C3G A43U | 0.233
21 | C3G A43C | 0.261
22 | C3U A16C | 0.437
23 | C3A G17U | 0.0665
24 | C3A G17A | 0.104

Row | Variant | self-cleavage
25 | C3U C41G | 0.499
26 | C3U C41A | 0.807
27 | C3A G81C | 0.0158
28 | C3A G81A | 0.054
29 | C3U G38U | 0.111
30 | C3U G38C | 0.122
31 | C3U G38A | 0.0811
32 | C3G C84G | 0.41
33 | C3G C84U | 0.736
34 | C3U U60C | 0.943
35 | C3G A87C | 0.861
36 | C4A C48G | 0.148
37 | C3G G31A | 0.0608
38 | C3G G31C | 0.0455
39 | C3G G17A | 0.102
40 | C3G G17U | 0.073
41 | C3U C86G | 0.848
42 | C3G C41G | 0.241
43 | C3G C57G | 0.891
44 | C3G C57U | 0.75
45 | C3U C19G | 0.0171
46 | C3U C19U | 0.126
47 | C3U A87U | 0.725
48 | C3G G82C | 0.0923

Row | Variant | self-cleavage
49 | C3U G59U | 0.943
50 | C3U G59C | 0.688
51 | C3U G59A | 0.925
52 | C3U A8G | 0.554
53 | C3U A8U | 0.656
54 | C4A A71C | 0.156
55 | C3U A43G | 0.342
56 | C3U A43U | 0.496
57 | C3U A43C | 0.293
58 | C3G C13A | 0.0545
59 | C3G C13G | 0.0504
60 | C3U C13A | 0.138
61 | C4A A42C | 0.0332
62 | C4A A42U | 0.0997
63 | C3A U12C | 0.0615
64 | C3G U65G | 0.751
65 | C3G U65A | 0.648
66 | C3A G50C | 0.572
67 | C3G G29C | 0.0396
68 | C3G G5A | 0.18
69 | C3G G5C | 1.5
70 | C3U C32G | 0.0769
71 | C3U C32A | 0.053
72 | C3A G53C | 0.635

Row | Variant | self-cleavage
73 | C3A G53U | 0.527
74 | C3U U12A | 0.0817
75 | C3U U12G | 0.429
76 | C3U C14A | 0.594
77 | C3G C62A | 0.789
78 | C3G C62G | 0.169
79 | C3U G82C | 0.0779
80 | C3U C7A | 0.205
81 | C3U C7G | 0
82 | C3G G34U | 0.323
83 | C4A C36A | 0.0314
84 | C4A C36G | 0.0875
85 | C3U G34U | 0.141
86 | C3U G67C | 0.772
87 | C3G C44G | 0.0707
88 | C3G C24U | 0.196
89 | C3G C24G | 0.102
90 | C3G C24A | 0
91 | C3U C84A | 0.665
92 | C3U C84G | 0.636
93 | C3G A78U | 0.125
94 | C3U C26G | 0.989
95 | C4A A45U | 0.095
96 | C3A U72A | 0.07

Row | Variant | self-cleavage
97 | C3G A71C | 0.261
98 | C3A U65G | 0.718
99 | C3G C4G | 1
100 | C3G C4A | 0.0767
101 | C3A G67U | 0.71
102 | C3A G67C | 0.61
103 | C3U G52A | 0.896
104 | C3U G52U | 0.723
105 | C3A G35U | 1.14
106 | C3A G35A | 0.859
107 | C3A U69A | 0.406
108 | C3A U69G | 0.567
109 | C3A G39A | 0.067
110 | C4A A77C | 0.0462
111 | C3G C61G | 0.561
112 | C4A C7G | 0.104
113 | C4A C7U | 0.0519
114 | C3U U46G | 0.446
115 | C3U U46A | 0.628
116 | C3U U46C | 0.567
117 | C4A C44A | 0.148
118 | C3U C36G | 0.0519
119 | C3U C36U | 0.356
120 | C3U G54A | 0.633

Row | Variant | self-cleavage
121 | C3U G54C | 0.636
122 | C3U A70C | 0.566
123 | C3U G73C | 0.304
124 | C3U C15U | 0.562
125 | C3U C57G | 0.803
126 | C3G U27C | 0.133
127 | C3U U65A | 0.872
128 | C3U U65C | 0.78
129 | C3G G28U | 0.0357
130 | C3G G28A | 0.0326
131 | C3G A42U | 0.116
132 | C3G A42G | 0.138
133 | C3G G67A | 0.682
134 | C3G G67C | 0.524
135 | C3U C62A | 0.973
136 | C3U C62U | 0.762
137 | C3G C26G | 0.753
138 | C4A A43C | 0
139 | C3G C85U | 0.751
140 | C3G C85A | 0.858
141 | C3U G29U | 0.0723
142 | C3G C33U | 0.194
143 | C3G C33A | 0.0817
144 | C3G C33G | 0.128

Row | Variant | self-cleavage
145 | C3G C66A | 0.585
146 | C3G C63A | 0.575
147 | C3G C63U | 0.589
148 | C3G C63G | 0.307
149 | C3U U27C | 0.262
150 | C3U U27G | 0.723
151 | C3A U9A | 0.657
152 | C3U A51G | 0.577
153 | C3G U47C | 0.54
154 | C3G U47A | 0.594
155 | C3G U47G | 0.457
156 | C4A A78G | 0.147
157 | C3A U46G | 0.026
158 | C3G U46C | 0.373
159 | C3G U46A | 0.253
160 | C4A C33A | 0
161 | C3G U72C | 0.267
162 | C3G U72A | 0.237
163 | C4A A70C | 0.136
164 | C3U A56G | 0.831
165 | C3G C36U | 0.155
166 | C3G C36A | 0.0288
167 | C3A G25C | 0.0198
